One assay deals with T1, human PAC1 receptor (human, UniProt P41586 21-468).
T1 sequence: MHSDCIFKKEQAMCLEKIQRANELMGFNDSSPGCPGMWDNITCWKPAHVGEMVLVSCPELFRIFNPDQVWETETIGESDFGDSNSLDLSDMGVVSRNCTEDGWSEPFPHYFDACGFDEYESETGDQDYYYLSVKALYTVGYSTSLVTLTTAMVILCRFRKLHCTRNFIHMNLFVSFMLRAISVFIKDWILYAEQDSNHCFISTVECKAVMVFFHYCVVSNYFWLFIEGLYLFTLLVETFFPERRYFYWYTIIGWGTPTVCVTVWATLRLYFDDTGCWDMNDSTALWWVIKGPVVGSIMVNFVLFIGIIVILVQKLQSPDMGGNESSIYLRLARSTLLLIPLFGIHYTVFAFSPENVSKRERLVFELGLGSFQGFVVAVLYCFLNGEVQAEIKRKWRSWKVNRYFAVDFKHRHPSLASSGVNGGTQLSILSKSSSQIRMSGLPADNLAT
In words: cell-based or functional assay.

For a further assay, the target named is human CGRP receptor (human, UniProt Q16602 23-461; O60894 27-148). In words: cell-based or functional assay.
human CGRP receptor, sequence (Q16602 23-461 limits assumed, chain 1 of 2): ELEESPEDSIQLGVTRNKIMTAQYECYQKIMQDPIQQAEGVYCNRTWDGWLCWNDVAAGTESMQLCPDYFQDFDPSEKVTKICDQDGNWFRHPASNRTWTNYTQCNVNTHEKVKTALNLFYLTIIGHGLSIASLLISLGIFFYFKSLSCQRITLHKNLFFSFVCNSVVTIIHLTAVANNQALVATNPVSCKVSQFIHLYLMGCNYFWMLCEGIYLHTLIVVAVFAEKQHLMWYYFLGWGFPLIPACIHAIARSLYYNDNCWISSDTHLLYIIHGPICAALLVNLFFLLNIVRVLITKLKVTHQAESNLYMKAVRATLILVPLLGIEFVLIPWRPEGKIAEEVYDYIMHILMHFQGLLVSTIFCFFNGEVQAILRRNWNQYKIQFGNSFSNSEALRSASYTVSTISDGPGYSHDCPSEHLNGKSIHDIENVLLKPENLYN
human CGRP receptor, sequence (O60894 27-148 limits assumed, chain 2 of 2): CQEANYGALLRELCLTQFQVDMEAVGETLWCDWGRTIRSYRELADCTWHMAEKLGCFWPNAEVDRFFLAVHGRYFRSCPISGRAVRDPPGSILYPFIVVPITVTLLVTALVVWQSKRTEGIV

B1: iPS:326661 (bispecific antibody, human IgG2, kappa)
light 1: not shown
heavy 1: QVQLQQSGPGLVKPSQTLSLTCAISGDSVSSNSATWNWIRQSPSRGLEWLGRTYYRSKWSNHYAVSVKSRITINPDTSKSQFSLQLNSVTPEDTAVYYCARGTWKQLWFLDHWGQGTLVTVSSASTKGPSVFPLAPCSRSTSESTAALGCLVKDYFPEPVTVSWNSGALTSGVHTFPAVLQSSGLYSLKSVVTVPSSNFGTQTYTCNVDHKPSNTKVDKTVERKCCVECPPCPAPPVAGPSVFLFPPKPKDTLMISRTPEVTCVVVDVSHEDPEVQFNWYVDGVEVHNAKTKPREEQFNSTFRVVSVLTVVHQDWLNGKEYKCKVSNKGLPAPIEKTISKTKGQPREPQVYTLPPSREEMTKNQVSLTCLVDGFYPSDIAVEWESNGQPENNYDTTPPMLDSDGSFFLYSDLTVDKSRWQQGNVFSCSVMHEALHNHYTQKSLSLSPGK
light 2: EIVLTQSPGTLSLSPGERATLSCRASQSVSSGYLTWYQQKPGQAPRLLIYGASSRATGIPDRFSGSGSGTDFTLTISRLEPEDFAVYYCQQYGNSLSRFGQGTKLEIKRTVAAPSVFIFPPSDEQLKSGTASVVCLLNNFYPREAKVQWKVDNALQSGNSQESVTEQDSKDSTYSLKSTLTLSKADYEKHKVYACEVTHQGLSSPVTKSFNRGEC
heavy 2: QVQLVESGGGVVQPGRSLRLSCAASGFTFSSYGMHWVRQAPGKGLEWVAVIWYDGSNKYYADSVKGRFIISRDKSKNTLYLQMNSLRAEDTAVYYCARAGGIAAAGLYYYYGMDVWGQGTTVTVSSASTKGPSVFPLAPCSRSTSESTAALGCLVKDYFPEPVTVSWNSGALTSGVHTFPAVLQSSGLYSLESVVTVPSSNFGTQTYTCNVDHKPSNTKVDKTVERKCCVECPPCPAPPVAGPSVFLFPPKPKDTLMISRTPEVTCVVVDVSHEDPEVQFNWYVDGVEVHNAKTKPREEQFNSTFRVVSVLTVVHQDWLNGKEYKCKVSNKGLPAPIEKTISKTKGQPREPQVYTLPPSRKKMTKNQVSLTCLVKGFYPSDIAVEWESNGQPENNYKTTPPMLKSDGSFFLYSKLTVDKSRWQQGNVFSCSVMHEALHNHYTQKSLSLSPGK
Take B1: in the assay with human PAC1 receptor, the “% inhibition of human PAC1” value was found to be 72%. For the same molecule, in the assay with human CGRP receptor, the “% inhibition of human CGRPR” value is 77%.

B2: iPS:327700 (bispecific antibody, human IgG1, kappa, lambda, N297G)
light 1: not shown
heavy 1: not shown
light 2: QSVLTQPPSVSAAPGQKVTISCSGSSSNIGNNYVSWYQQLPGTAPKLLIYDNNKRPSGIPDRFSGSKSGTSTTLGITGLQTGDEADYYCGTWDSRLSAVVFGGGTKLTVLGQPKANPTVTLFPPSSEELQANKATLVCLISDFYPGAVTVAWKADGSPVKAGVETTKPSKQSNNKYAAKSYLSLTPEQWKSHRSYSCQVTHEGSTVEKTVAPTECS
heavy 2: QVQLVESGGGVVQPGRSLRLSCAASGFTFSSFGMHWVRQAPGKGLEWVAVISFDGSIKYSVDSVKGRFTISRDNSKNTLFLQMNSLRAEDTAVYYCARDRLNYYESSGYYHYKYYGMAVWGQGTTVTVSSASTKGPSVFPLAPSSKSTSGGTAALGCLVKDYFPEPVTVSWNSGALTSGVHTFPAVLQSSGLYSLESVVTVPSSSLGTQTYICNVNHKPSNTKVDKKVEPKSCDKTHTCPPCPAPELLGGPSVFLFPPKPKDTLMISRTPEVTCVVVDVSHEDPEVKFNWYVDGVEVHNAKTKPCEEQYGSTYRCVSVLTVLHQDWLNGKEYKCKVSNKALPAPIEKTISKAKGQPREPQVYTLPPSRKKMTKNQVSLTCLVKGFYPSDIAVEWESNGQPENNYKTTPPVLKSDGSFFLYSKLTVDKSRWQQGNVFSCSVMHEALHNHYTQKSLSLSPGK
B2: the “% inhibition of human PAC1” value in the assay with human PAC1 receptor is 72%. Also, in the assay with human CGRP receptor, the “% inhibition of human CGRPR” value was determined as 77%.

B3: iPS:327710 (bispecific antibody, human IgG1, kappa, lambda, N297G)
light 1: EIVLTQSPATLSLSPGERATLSCRASQSVGRSLHWYQQKPGQAPRLLIKYASQSLSGIPARFSGSGSGTDFTLTISSLEPEDFAVYYCHQSSRLPFTFGEGTKVDIKRTVAAPSVFIFPPSDEQLKSGTASVVCLLNNFYPREAKVQWKVDNALQSGNSQESVTEQDSKDSTYSLESTLTLSKADYEKHKVYACEVTHQGLSSPVTKSFNRGEC
heavy 1: not shown
light 2: QSVLTQPPSVSAAPGQKVTISCSGSSSNIGNNYVSWYQQLPGTAPKLLIYDNNKRPSGIPDRFSGSKSGTSATLGITGLQTGDEADYYCGTWDSRLSAVVFGKGTKLTVLGQPKANPTVTLFPPSSEELQANKATLVCLISDFYPGAVTVAWKADGSPVKAGVETTKPSKQSNNKYAAKSYLSLTPEQWKSHRSYSCQVTHEGSTVEKTVAPTECS
heavy 2: QVQLVESGGGVVQPGRSLRLSCAASGFTFSSFGMHWVRQAPGKELEWVAVISFDGSIKYSVDSVKGRFTISRDNSKNTLFLQMNSLRAEDTAVYYCARDRLNYYDSSGYYHYKYYGMAVWGQGTTVTVSSASTKGPSVFPLAPSSKSTSGGTAALGCLVKDYFPEPVTVSWNSGALTSGVHTFPAVLQSSGLYSLESVVTVPSSSLGTQTYICNVNHKPSNTKVDKKVEPKSCDKTHTCPPCPAPELLGGPSVFLFPPKPKDTLMISRTPEVTCVVVDVSHEDPEVKFNWYVDGVEVHNAKTKPCEEQYGSTYRCVSVLTVLHQDWLNGKEYKCKVSNKALPAPIEKTISKAKGQPREPQVYTLPPSRKEMTKNQVSLTCLVKGFYPSDIAVEWESNGQPENNYKTTPPVLKSDGSFFLYSKLTVDKSRWQQGNVFSCSVMHEALHNHYTQKSLSLSPGK
Regarding B3, the “% inhibition of human PAC1” value in the assay with human PAC1 receptor is 61%. For the same molecule, the “% inhibition of human CGRPR” value with human CGRP receptor is 82%.

B4: iPS:327711 (bispecific antibody, human IgG1, kappa, lambda, N297G)
light 1: not shown
heavy 1: not shown
light 2: QSVLTQPPSVSAAPGQKVTISCSGSSSNIGNNYVSWYQQLPGTAPKLLIYDNNKRPSGIPDRFSGSKSGTSATLGITGLQTGDEADYYCGTWDSRLSAVVFGGGTKLTVLGQPKANPTVTLFPPSSEELQANKATLVCLISDFYPGAVTVAWKADGSPVKAGVETTKPSKQSNNKYAAKSYLSLTPEQWKSHRSYSCQVTHEGSTVEKTVAPTECS
heavy 2: QVQLVESGGGVVQPGRSLRLSCAASGFTFSSFGMHWVRQAPGKGLEWVAVISFDGSIKYSVDSVKGRFTISRDNSKNTLFLQMNSLRAEDTAVYYCARDRLNYYDSSGYYHYKYYGMAVWGQGTTVTVSSASTKGPSVFPLAPSSKSTSGGTAALGCLVKDYFPEPVTVSWNSGALTSGVHTFPAVLQSSGLYSLESVVTVPSSSLGTQTYICNVNHKPSNTKVDKKVEPKSCDKTHTCPPCPAPELLGGPSVFLFPPKPKDTLMISRTPEVTCVVVDVSHEDPEVKFNWYVDGVEVHNAKTKPCEEQYGSTYRCVSVLTVLHQDWLNGKEYKCKVSNKALPAPIEKTISKAKGQPREPQVYTLPPSRKKMTKNQVSLTCLVKGFYPSDIAVEWESNGQPENNYKTTPPVLKSDGSFFLYSKLTVDKSRWQQGNVFSCSVMHEALHNHYTQKSLSLSPGK
On to B4, for which the “% inhibition of human PAC1” value with human PAC1 receptor amounted to 97%. For the same molecule, the “% inhibition of human CGRPR” value with human CGRP receptor came out at 87%.

B5: iPS:327702 (bispecific antibody, human IgG1, kappa, lambda, N297G)
light 1: EIVLTQSPATLSLSPGERATLSCRASQSVGRSLHWYQQKPGQAPRLLIKYASQSLSGIPARFSGSGSGTDFTLTISSLEPEDFAVYYCHQSSRLPFTFGPGTKVDIKRTVAAPSVFIFPPSDEQLKSGTASVVCLLNNFYPREAKVQWKVDNALQSGNSQESVTEQDSKDSTYSLESTLTLSKADYEKHKVYACEVTHQGLSSPVTKSFNRGEC
heavy 1: not shown
light 2: QSVLTQPPSVSAAPGQKVTISCSGSSSNIGNNYVSWYQQLPGTAPKLLIYDNNKRPSGIPDRFSGSKSGTSTTLGITGLQTGDEADYYCGTWDSRLSAVVFGGGTKLTVLGQPKANPTVTLFPPSSEELQANKATLVCLISDFYPGAVTVAWKADGSPVKAGVETTKPSKQSNNKYAAKSYLSLTPEQWKSHRSYSCQVTHEGSTVEKTVAPTECS
heavy 2: QVQLVESGGGVVQPGRSLRLSCAASGFTFSSFGMHWVRQAPGKGLEWVAVISFDGSIKYSVDSVKGRFTISRDNSKNTLFLQMNSLRAEDTAVYYCARDRLNYYESSGYYHYKYYGMAVWGQGTTVTVSSASTKGPSVFPLAPSSKSTSGGTAALGCLVKDYFPEPVTVSWNSGALTSGVHTFPAVLQSSGLYSLESVVTVPSSSLGTQTYICNVNHKPSNTKVDKKVEPKSCDKTHTCPPCPAPELLGGPSVFLFPPKPKDTLMISRTPEVTCVVVDVSHEDPEVKFNWYVDGVEVHNAKTKPCEEQYGSTYRCVSVLTVLHQDWLNGKEYKCKVSNKALPAPIEKTISKAKGQPREPQVYTLPPSRKKMTKNQVSLTCLVKGFYPSDIAVEWESNGQPENNYKTTPPVLKSDGSFFLYSKLTVDKSRWQQGNVFSCSVMHEALHNHYTQKSLSLSPGK
With B5, in the assay with human PAC1 receptor, the “% inhibition of human PAC1” value was 86%. In addition, the “% inhibition of human CGRPR” value with human CGRP receptor stood at 79%.

B6: iPS:327701 (bispecific antibody, human IgG1, kappa, lambda, N297G)
light 1: DIQLTQSPSFLSASVGDRVTITCRASQSIGRSLHWYQQKPGKAPKLLIKYASQSLSGVPSRFSGSGSGTEFTLTISSLQPEDFATYYCHQSSRLPFTFGPGTKVDIKRTVAAPSVFIFPPSDEQLKSGTASVVCLLNNFYPREAKVQWKVDNALQSGNSQESVTEQDSKDSTYSLESTLTLSKADYEKHKVYACEVTHQGLSSPVTKSFNRGEC
heavy 1: not shown
light 2: QSVLTQPPSVSAAPGQKVTISCSGSSSNIGNNYVSWYQQLPGTAPKLLIYDNNKRPSGIPDRFSGSKSGTSTTLGITGLQTGDEADYYCGTWDSRLSAVVFGGGTKLTVLGQPKANPTVTLFPPSSEELQANKATLVCLISDFYPGAVTVAWKADGSPVKAGVETTKPSKQSNNKYAAKSYLSLTPEQWKSHRSYSCQVTHEGSTVEKTVAPTECS
heavy 2: QVQLVESGGGVVQPGRSLRLSCAASGFTFSSFGMHWVRQAPGKGLEWVAVISFDGSIKYSVDSVKGRFTISRDNSKNTLFLQMNSLRAEDTAVYYCARDRLNYYESSGYYHYKYYGMAVWGQGTTVTVSSASTKGPSVFPLAPSSKSTSGGTAALGCLVKDYFPEPVTVSWNSGALTSGVHTFPAVLQSSGLYSLESVVTVPSSSLGTQTYICNVNHKPSNTKVDKKVEPKSCDKTHTCPPCPAPELLGGPSVFLFPPKPKDTLMISRTPEVTCVVVDVSHEDPEVKFNWYVDGVEVHNAKTKPCEEQYGSTYRCVSVLTVLHQDWLNGKEYKCKVSNKALPAPIEKTISKAKGQPREPQVYTLPPSRKKMTKNQVSLTCLVKGFYPSDIAVEWESNGQPENNYKTTPPVLKSDGSFFLYSKLTVDKSRWQQGNVFSCSVMHEALHNHYTQKSLSLSPGK
With B6, the “% inhibition of human PAC1” value in the assay with human PAC1 receptor was 41%. Moreover, the “% inhibition of human CGRPR” value in the assay with human CGRP receptor is 73%.

(Values after patent US20170306033A1 (Amgen, published 2017).)
